Reference: patent US20250218531A1 (ABSCI, published 2025)
Changes are numbered by the printed parent chain. Several values for one entry are separate records, joined by “and”; a condition that tells them apart may be missing. Equal values may be shown once.

B1: Trastuzumab HCDR3 variant ARYGYGYYYYFDY (Fab, V domains shown)
VH: EVQLVESGGGLVQPGGSLRLSCAASGFNIKDTYIHWVRQAPGKGLEWVARIYPTNGYTRYADSVKGRFTISADTSKNTAYLQMNSLRAEDTAVYYCARYGYGYYYYFDYWGQGTLVTVSS
VL: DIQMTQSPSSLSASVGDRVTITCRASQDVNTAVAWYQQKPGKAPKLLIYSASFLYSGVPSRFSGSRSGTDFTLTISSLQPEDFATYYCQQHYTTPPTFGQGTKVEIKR
B2: Trastuzumab HCDR3 variant ARGHYSLGYSFDF (Fab, V domains shown)
VH: B1 VH with Y99G, G100H, G102S, Y103L, Y104G, Y106S, Y109F
VL: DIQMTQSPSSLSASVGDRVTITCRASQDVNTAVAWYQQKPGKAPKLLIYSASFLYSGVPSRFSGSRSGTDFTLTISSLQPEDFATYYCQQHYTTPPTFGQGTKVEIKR
B3: Trastuzumab HCDR3 variant ARFGGAGGYYFDY (Fab, V domains shown)
VH: B1 VH with Y99F, Y101G, G102A, Y103G, Y104G
VL: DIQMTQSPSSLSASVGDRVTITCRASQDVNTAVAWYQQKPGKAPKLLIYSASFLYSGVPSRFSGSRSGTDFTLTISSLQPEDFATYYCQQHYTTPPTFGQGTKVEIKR
B4: Trastuzumab HCDR3 variant ARGYYQDSQSWGY (Fab, V domains shown)
VH: B1 VH with Y99G, G100Y, G102Q, Y103D, Y104S, Y105Q, Y106S, F107W, D108G
VL: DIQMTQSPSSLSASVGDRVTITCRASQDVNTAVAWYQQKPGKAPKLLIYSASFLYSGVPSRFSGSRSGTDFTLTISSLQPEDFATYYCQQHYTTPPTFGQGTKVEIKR
B5: Trastuzumab HCDR3 variant AGYEGYGLYPFAY (Fab, V domains shown)
VH: B1 VH with R98G, G100E, Y101G, G102Y, Y103G, Y104L, Y106P, D108A
VL: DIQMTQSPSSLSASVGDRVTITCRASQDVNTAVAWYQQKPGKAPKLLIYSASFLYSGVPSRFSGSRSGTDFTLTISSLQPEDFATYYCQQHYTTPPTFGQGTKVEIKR
B6: Trastuzumab HCDR3 variant AKFHWGEDWLSDN (Fab, V domains shown)
VH: B1 VH with R98K, Y99F, G100H, Y101W, Y103E, Y104D, Y105W, Y106L, F107S, Y109N
VL: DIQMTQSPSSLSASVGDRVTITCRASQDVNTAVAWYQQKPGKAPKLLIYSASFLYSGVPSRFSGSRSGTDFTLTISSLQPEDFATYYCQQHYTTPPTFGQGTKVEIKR
B7: Trastuzumab HCDR3 variant ARFGPAYFYGFYY (Fab, V domains shown)
VH: B1 VH with Y99F, Y101P, G102A, Y104F, Y106G, D108Y
VL: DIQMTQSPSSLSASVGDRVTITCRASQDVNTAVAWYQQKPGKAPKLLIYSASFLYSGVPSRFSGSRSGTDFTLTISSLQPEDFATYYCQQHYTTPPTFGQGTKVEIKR
B8: Trastuzumab HCDR3 variant AKFERGYYSFDFG (Fab, V domains shown)
VH: B1 VH with R98K, Y99F, G100E, Y101R, Y105S, Y106F, F107D, D108F, Y109G
VL: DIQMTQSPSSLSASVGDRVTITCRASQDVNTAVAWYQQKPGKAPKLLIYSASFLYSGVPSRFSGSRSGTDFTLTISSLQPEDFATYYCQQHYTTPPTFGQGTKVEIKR
B9: Trastuzumab HCDR3 variant ARGGYGYYTWFDY (Fab, V domains shown)
VH: B1 VH with Y99G, Y105T, Y106W
VL: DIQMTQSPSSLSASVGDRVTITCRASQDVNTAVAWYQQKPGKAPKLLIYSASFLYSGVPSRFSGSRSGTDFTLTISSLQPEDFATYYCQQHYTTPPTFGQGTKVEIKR
B10: Trastuzumab HCDR3 variant AGSSASGWYHYTT (Fab, V domains shown)
VH: EVQLVESGGGLVQPGGSLRLSCAASGFNIKDTYIHWVRQAPGKGLEWVARIYPTNGYTRYADSVKGRFTISADTSKNTAYLQMNSLRAEDTAVYYCAGSSASGWYHYTTWGQGTLVTVSS
VL: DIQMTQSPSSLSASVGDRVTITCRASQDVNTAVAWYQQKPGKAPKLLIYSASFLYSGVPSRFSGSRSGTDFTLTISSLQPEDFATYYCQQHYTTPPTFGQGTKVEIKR
B11: Trastuzumab HCDR3 variant AKYTRGFSYGFGY (Fab, V domains shown)
VH: B1 VH with R98K, G100T, Y101R, Y103F, Y104S, Y106G, D108G
VL: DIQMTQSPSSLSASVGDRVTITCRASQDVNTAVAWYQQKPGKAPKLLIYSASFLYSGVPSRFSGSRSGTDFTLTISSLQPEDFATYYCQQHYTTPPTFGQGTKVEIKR
B12: Trastuzumab HCDR3 variant ARAGGTSISLGHG (Fab, V domains shown)
VH: B1 VH with Y99A, Y101G, G102T, Y103S, Y104I, Y105S, Y106L, F107G, D108H, Y109G
VL: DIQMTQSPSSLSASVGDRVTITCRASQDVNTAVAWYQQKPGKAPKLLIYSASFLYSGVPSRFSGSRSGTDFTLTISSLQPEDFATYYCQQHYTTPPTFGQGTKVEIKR
B13: Trastuzumab HCDR3 variant AQYGRGGYWYFDY (Fab, V domains shown)
VH: B1 VH with R98Q, Y101R, Y103G, Y105W
VL: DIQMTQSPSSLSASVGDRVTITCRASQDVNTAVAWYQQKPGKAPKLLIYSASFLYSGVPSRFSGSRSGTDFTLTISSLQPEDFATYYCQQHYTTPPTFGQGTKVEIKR
B14: Trastuzumab HCDR3 variant AIWSMYDVGYYPF (Fab, V domains shown)
VH: B10 VH with G98I, S99W, A101M, S102Y, G103D, W104V, Y105G, H106Y, T108P, T109F
VL: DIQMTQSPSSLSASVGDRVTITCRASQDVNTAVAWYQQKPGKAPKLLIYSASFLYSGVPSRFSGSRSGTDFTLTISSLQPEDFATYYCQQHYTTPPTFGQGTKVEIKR
B15: Trastuzumab HCDR3 variant APWGTYRYGYFDH (Fab, V domains shown)
VH: B1 VH with R98P, Y99W, Y101T, G102Y, Y103R, Y105G, Y109H
VL: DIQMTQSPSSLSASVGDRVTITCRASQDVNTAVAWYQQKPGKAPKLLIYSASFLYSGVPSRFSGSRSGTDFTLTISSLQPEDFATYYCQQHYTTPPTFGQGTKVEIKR
B16: Trastuzumab HCDR3 variant ARDSPYYGSLYLY (Fab, V domains shown)
VH: B1 VH with Y99D, G100S, Y101P, G102Y, Y104G, Y105S, Y106L, F107Y, D108L
VL: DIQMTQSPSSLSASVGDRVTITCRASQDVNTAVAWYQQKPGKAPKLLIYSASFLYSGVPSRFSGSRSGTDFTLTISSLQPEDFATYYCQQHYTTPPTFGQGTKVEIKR
B17: Trastuzumab HCDR3 variant ARDGYPQYGGYGY (Fab, V domains shown)
VH: B1 VH with Y99D, G102P, Y103Q, Y105G, Y106G, F107Y, D108G
VL: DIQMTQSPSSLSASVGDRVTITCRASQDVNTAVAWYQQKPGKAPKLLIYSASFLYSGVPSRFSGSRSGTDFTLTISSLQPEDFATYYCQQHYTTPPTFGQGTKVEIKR
B18: Trastuzumab HCDR3 variant ARDVYVGSPVFDY (Fab, V domains shown)
VH: B1 VH with Y99D, G100V, G102V, Y103G, Y104S, Y105P, Y106V
VL: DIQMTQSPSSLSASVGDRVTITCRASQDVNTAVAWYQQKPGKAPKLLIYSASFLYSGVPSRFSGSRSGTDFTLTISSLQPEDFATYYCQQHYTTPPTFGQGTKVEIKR
B19: Trastuzumab HCDR3 variant ARDGYPFYSGMDY (Fab, V domains shown)
VH: B1 VH with Y99D, G102P, Y103F, Y105S, Y106G, F107M
VL: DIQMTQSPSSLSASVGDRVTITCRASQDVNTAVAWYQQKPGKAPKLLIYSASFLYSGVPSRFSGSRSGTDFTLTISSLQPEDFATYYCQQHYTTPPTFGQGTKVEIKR
B20: Trastuzumab HCDR3 variant ARFSGYGAYDYAY (Fab, V domains shown)
VH: B10 VH with G98R, S99F, A101G, S102Y, W104A, H106D, T108A, T109Y
VL: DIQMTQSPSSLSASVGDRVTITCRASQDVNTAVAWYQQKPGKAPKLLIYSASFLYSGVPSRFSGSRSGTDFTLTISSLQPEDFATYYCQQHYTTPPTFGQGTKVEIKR
B21: Trastuzumab HCDR3 variant AQNWDRGSYFYTY (Fab, V domains shown)
VH: B10 VH with G98Q, S99N, S100W, A101D, S102R, W104S, H106F, T109Y
VL: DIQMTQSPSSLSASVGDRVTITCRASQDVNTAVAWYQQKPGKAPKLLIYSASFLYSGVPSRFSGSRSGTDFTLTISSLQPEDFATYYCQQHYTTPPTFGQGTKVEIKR
B22: Trastuzumab HCDR3 variant AGSVAEGWYHYRD (Fab, V domains shown)
VH: B10 VH with S100V, S102E, T108R, T109D
VL: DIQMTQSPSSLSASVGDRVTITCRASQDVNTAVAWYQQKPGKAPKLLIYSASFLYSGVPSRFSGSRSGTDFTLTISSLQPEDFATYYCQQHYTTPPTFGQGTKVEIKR
B23: Trastuzumab HCDR3 variant ANVGSSLGIAALD (Fab, V domains shown)
VH: EVQLVESGGGLVQPGGSLRLSCAASGFNIKDTYIHWVRQAPGKGLEWVARIYPTNGYTRYADSVKGRFTISADTSKNTAYLQMNSLRAEDTAVYYCANVGSSLGIAALDWGQGTLVTVSS
VL: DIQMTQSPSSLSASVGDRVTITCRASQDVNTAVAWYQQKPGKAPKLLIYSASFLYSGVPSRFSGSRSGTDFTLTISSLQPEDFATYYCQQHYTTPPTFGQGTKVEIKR
B24: Trastuzumab HCDR3 variant APWWSGWYYFFDT (Fab, V domains shown)
VH: B1 VH with R98P, Y99W, G100W, Y101S, Y103W, Y106F, Y109T
VL: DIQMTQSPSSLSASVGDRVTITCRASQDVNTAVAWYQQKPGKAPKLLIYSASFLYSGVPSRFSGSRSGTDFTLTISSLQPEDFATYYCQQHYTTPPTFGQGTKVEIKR
B25: Trastuzumab HCDR3 variant ARDGGMYRYGLYG (Fab, V domains shown)
VH: B1 VH with Y99D, Y101G, G102M, Y104R, Y106G, F107L, D108Y, Y109G
VL: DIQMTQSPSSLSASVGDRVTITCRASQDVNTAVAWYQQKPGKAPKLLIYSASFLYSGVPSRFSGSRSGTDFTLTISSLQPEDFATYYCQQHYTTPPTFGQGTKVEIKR
B26: Trastuzumab HCDR3 variant ARHYDYGRYYMDV (Fab, V domains shown)
VH: B1 VH with Y99H, G100Y, Y101D, G102Y, Y103G, Y104R, F107M, Y109V
VL: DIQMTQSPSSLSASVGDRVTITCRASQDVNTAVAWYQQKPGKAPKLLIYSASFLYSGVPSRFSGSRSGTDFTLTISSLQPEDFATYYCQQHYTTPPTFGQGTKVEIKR
B27: Trastuzumab HCDR3 variant TRNGPLYWHWDL (Fab, V domains shown)
VH: EVQLVESGGGLVQPGGSLRLSCAASGFNIKDTYIHWVRQAPGKGLEWVARIYPTNGYTRYADSVKGRFTISADTSKNTAYLQMNSLRAEDTAVYYCTRNGPLYWHWDLWGQGTLVTVSS
VL: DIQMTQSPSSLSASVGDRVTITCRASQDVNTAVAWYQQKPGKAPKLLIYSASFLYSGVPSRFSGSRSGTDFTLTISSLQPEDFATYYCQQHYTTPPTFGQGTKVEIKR
B28: Trastuzumab HCDR3 variant TRTRSGAYFFDY (Fab, V domains shown)
VH: B27 VH with N99T, G100R, P101S, L102G, Y103A, W104Y, H105F, W106F, L108Y
VL: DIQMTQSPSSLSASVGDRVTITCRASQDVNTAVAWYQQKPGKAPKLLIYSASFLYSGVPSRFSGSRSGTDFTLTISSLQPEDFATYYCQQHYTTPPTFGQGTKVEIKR
B29: Trastuzumab HCDR3 variant TRTTLGFYAMDY (Fab, V domains shown)
VH: B27 VH with N99T, G100T, P101L, L102G, Y103F, W104Y, H105A, W106M, L108Y
VL: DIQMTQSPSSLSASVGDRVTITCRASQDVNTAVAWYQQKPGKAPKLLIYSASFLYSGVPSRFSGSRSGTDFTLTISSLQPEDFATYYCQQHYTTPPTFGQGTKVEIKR
B30: Trastuzumab HCDR3 variant VKHGIDYYWYGD (Fab, V domains shown)
VH: B27 VH with T97V, R98K, N99H, P101I, L102D, W104Y, H105W, W106Y, D107G, L108D
VL: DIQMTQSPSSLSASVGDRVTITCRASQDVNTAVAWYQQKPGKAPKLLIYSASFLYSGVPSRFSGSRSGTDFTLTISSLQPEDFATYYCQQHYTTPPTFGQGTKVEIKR
B31: Trastuzumab HCDR3 variant TRYYDGYYAMDY (Fab, V domains shown)
VH: B27 VH with N99Y, G100Y, P101D, L102G, W104Y, H105A, W106M, L108Y
VL: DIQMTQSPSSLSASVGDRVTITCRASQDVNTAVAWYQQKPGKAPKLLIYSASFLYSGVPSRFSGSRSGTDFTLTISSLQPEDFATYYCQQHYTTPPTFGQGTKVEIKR
B32: Trastuzumab HCDR3 variant VRYYRGYYYFDY (Fab, V domains shown)
VH: B27 VH with T97V, N99Y, G100Y, P101R, L102G, W104Y, H105Y, W106F, L108Y
VL: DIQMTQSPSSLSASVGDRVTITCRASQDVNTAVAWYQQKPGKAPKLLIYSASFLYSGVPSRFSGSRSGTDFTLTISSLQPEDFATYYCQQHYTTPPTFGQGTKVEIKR
B33: Trastuzumab HCDR3 variant TRYFYDFPYMDY (Fab, V domains shown)
VH: B27 VH with N99Y, G100F, P101Y, L102D, Y103F, W104P, H105Y, W106M, L108Y
VL: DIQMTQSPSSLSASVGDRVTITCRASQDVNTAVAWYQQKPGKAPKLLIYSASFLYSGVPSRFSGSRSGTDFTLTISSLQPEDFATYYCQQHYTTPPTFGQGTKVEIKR
B34: Trastuzumab HCDR3 variant … (Fab, V domains shown)
VH: B27 VH with T97A, N99Y, G100Y, P101D, L102Y, Y103G, W104Y, H105T, W106F, L108Y
VL: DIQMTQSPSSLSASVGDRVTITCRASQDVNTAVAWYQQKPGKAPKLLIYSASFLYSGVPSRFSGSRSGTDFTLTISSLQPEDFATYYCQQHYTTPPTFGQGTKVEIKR

What follows are binders tested against human epidermal growth factor receptor 2 (HER2) extracellular domain (human, UniProt P04626 23-629) (assay: SPR).
With B1 the Kd was 39.1 nM and the “log(KD (M))” value was -7.41 log(M).
With B2 the Kd was 256 nM and the “log(KD (M))” value was -6.59 log(M).
With B3 the Kd was 35 nM and the “log(KD (M))” value was -7.46 log(M).
In the case of B4, the Kd is reported as 166 nM and the “log(KD (M))” value is reported as -6.78 log(M).
With B5 the Kd was 128 nM and the “log(KD (M))” value was -6.89 log(M).
B6 was tested, and the Kd was 59.1 nM and the “log(KD (M))” value was -7.23 log(M).
In the case of B7, the Kd is reported as 50.9 nM and the “log(KD (M))” value is reported as -7.29 log(M).
B8 was tested, and the Kd was 38.3 nM and the “log(KD (M))” value was -7.42 log(M).
In the case of B9, the Kd is reported as 42.1 nM and the “log(KD (M))” value is reported as -7.38 log(M).
With B10 the Kd was 42.3 nM and 42.2 nM and the “log(KD (M))” value was -7.37 log(M).
In the case of B11, the Kd is reported as 37.8 nM and the “log(KD (M))” value is reported as -7.42 log(M).
B12 was tested, and the Kd was 67 nM and the “log(KD (M))” value was -7.17 log(M).
For B13, the Kd was 188 nM and the “log(KD (M))” value was -6.72 log(M).
B14 was tested, and the Kd was 71.8 nM and the “log(KD (M))” value was -7.14 log(M).
B15 was tested, and the Kd was 67.6 nM and the “log(KD (M))” value was -7.17 log(M).
With B16 the Kd was 205 nM and the “log(KD (M))” value was -6.69 log(M).
In the case of B17, the Kd is reported as 127 nM and the “log(KD (M))” value is reported as -6.9 log(M).
With B18 the Kd was 278 nM and the “log(KD (M))” value was -6.56 log(M).
With B19 the Kd was 154 nM and the “log(KD (M))” value was -6.81 log(M).
B20 was tested, and the Kd was 125 nM and the “log(KD (M))” value was -6.9 log(M).
In the case of B21, the Kd is reported as 43.1 nM and 43 nM and the “log(KD (M))” value is reported as -7.37 log(M).
For B22, the Kd was 60.3 nM and the “log(KD (M))” value was -7.22 log(M).
For B23, the Kd was 36.7 nM and the “log(KD (M))” value was -7.44 log(M).
B24 was tested, and the Kd was 33 nM and the “log(KD (M))” value was -7.48 log(M).
B25 was tested, and the Kd was 231 nM and the “log(KD (M))” value was -6.64 log(M).
For B26, the Kd was 30.9 nM and the “log(KD (M))” value was -7.51 log(M).
In the case of B27, the Kd is reported as 234 nM and the “log(KD (M))” value is reported as -6.63 log(M).
B28 was tested, and the Kd was 43.4 nM and the “log(KD (M))” value was -7.36 log(M).
In the case of B29, the Kd is reported as 32.3 nM and the “log(KD (M))” value is reported as -7.49 log(M).
With B30 the Kd was 60.1 nM and the “log(KD (M))” value was -7.22 log(M).
B31 was tested, and the Kd was 33.1 nM and the “log(KD (M))” value was -7.48 log(M).
For B32, the Kd was 96.4 nM and the “log(KD (M))” value was -7.02 log(M).
B33 was tested, and the Kd was 56.8 nM and the “log(KD (M))” value was -7.25 log(M).
In the case of B34, the Kd is reported as 61.2 nM and the “log(KD (M))” value is reported as -7.21 log(M).
